First the molecules themselves.
B1: Hsp42ΔPrLD (purified) (domain or fragment, S. cerevisiae, UniProt Q12329 100-375, looked up)
chain: MVGDSGTTRQEDGGEDSNSRRYPSYYHCNTARNNRTNQQANSLNDLLTALIGVPPYEGTEPEIEANTEQEGEKGEEKDKKDKSEAPKEEAGETNKEKPLNQLEESSRPPLAKKSSSFAHLQAPSPIPDPLQVSKPETRMDLPFSPEVNVYDTEDTYVVVLALPGANSRAFHIDYHPSSHEMLIKGKIEDRVGIDEKFLKITELKYGAFERTVKFPVLPRIKDEEIKATYNNGLLQIKVPKIVNDTEKPKPKKRIAIEEIPDEELEFEENPNPTVEN
B2: Hsp42ΔIDD (purified) (natural protein, S. cerevisiae, UniProt Q12329 1-375, looked up)
chain: MSFYQPSLSLYDVLNALSNQTGQRGQQGYPRQPQRPQRYHPHYGQVHVGGHHPRHHPLYSRYNGVPNTYYYQFPGQAYYYSPEYGYDDEDGEEEDQDEDSPEVNVYDTEDTYVVVLALPGANSRAFHIDYHPSSHEMLIKGKIEDRVGIDEKFLKITELKYGAFERTVKFPVLPRIKDEEIKATYNNGLLQIKVPKIVNDTEKPKPKKRIAIEEIPDEELEFEENPNPTVEN
B3: malate dehydrogenase (MDH) (enzyme)
chain: AKVAVLGASGGIGQPLSLLLKNSPLVSRLTLYDIAHTPGVAADLSHIETRATVKGYLGPEQLPDCLKGCDVVVIPAGVPRKPGMTRDDLFNTNATIVATLTAACAQHCPDAMICIISNPVNSTIPITAEVFKKHGVYNPNKIFGVTTLDIVRANAFVAELKGLDPARVSVPVIGGHAGKTIIPLISQCTPKVDFPQDQLSTLTGRIQEAGTEVVKAKAGAGSATLSMAYAGARFVFSLVDAMNGKEGVVECSFVKSQETDCPYFSTPLLLGKKGIEKNLGIGKISPFEEKMIAEAIPELKASIKKGEEFVKNMK

Data set [1] deals with the molecule itself. The experiment in a line: SEC-MALS.
For data set [2], the target named is B3. The experiment in a line: HDX-MS.
Data set [3] has as its target Hsp42 WT (purified, C-terminally FLAG-tagged) (S. cerevisiae, UniProt Q12329 1-375). The experiment in a line: HDX-MS.

In general, stoichiometry N refers to a count of units in the complex or per binding partner. As to B1, the “stoichiometry N” value in data set [1] is 4 subunits.
As for B2, the binding result in data set [2] was “binds”. Besides, in data set [1], the “stoichiometry N” value was 36 subunits.
With B3, the binding result in data set [3] is on record as “binds”.

The values above are taken from paper PMC5881502 (The Journal of Cell Biology, 2018).
